{"source": "patent US20230235048A1", "about": "(PROTHENA BIOSCIENCES, published 2023)", "binders": {"B1": {"name": "chimeric 5E20 (antibody, human IgG1, kappa, L234A L235A, V domains shown)", "VH": "EVQLVESGGDLVKPGGSLKLSCAAPGFTFSTYGMSWVRQTPDKRLEWVAIISSGGSYTYYSDTVKGRFTISRDNAKNTLYLQMSSLKSEDTAMYYCSRSSSHWYFDVWGTGTTVTVSS", "VL": "DILMTQSPSSMSVSLGDTVSITCHASQGISSNIGWLQQKPGKSFKGLIYHGTNLKDGVPSRFSGSGSGADFSLTISSLESEDFADYFCVQYAQFPYTFGGGTKLEIKR", "notes": "The entries are described as 'a chimeric 5E20 heavy chain' and 'light chain'"}, "B2": {"name": "humanized 8H24 hu8H24VHv1/hu8H24VLv1 (antibody, V domains shown)", "VH": "QAQLVQSGAEVKKPGSSVKVSCKASGYTFTSYSMHWVRQAPGQGLEWIGAIYPGNDATSYNQKFKGRATLTVDKSTSTAYMELSSLRSEDTAVYFCAREGYYGSSFEAWFASWGQGTTVTVSS", "VL": "DVVMTQTPLSLPVTPGEPASISCRSSQSIVHSNGNTYLEWYLQKPGQSPQLLIYKVSNRFSGVPDRFSGSGSGTDFTLKISRVEAEDVGVYYCFQGSHVLPTFGGGTKVEIK", "notes": "Human IgG; also called 8H24H1L1"}, "B3": {"name": "humanized 8H24 hu8H24VHv1/hu8H24VLv2 (antibody, V domains shown)", "VH": "B2 VH", "VL": "B2 VL with L9S, K79T", "notes": "Human IgG; also called 8H24H1L2; hu8H24H1L2"}, "B4": {"name": "humanized 8H24 hu8H24VHv2/hu8H24VLv1 (antibody, V domains shown)", "VH": "B2 VH with K12V", "VL": "B2 VL", "notes": "Human IgG; also called 8H24H2L1"}, "B5": {"name": "humanized 8H24 hu8H24VHv2/hu8H24VLv2 (antibody, V domains shown)", "VH": "B2 VH with K12V", "VL": "B2 VL with L9S, K79T", "notes": "Human IgG; also called 8H24H2L2"}}, "note": "Substitutions are numbered along the chain they refer to.", "data": [{"target": "T1, extracellular domain (ECD) of recombinant human Sortilin with a C-terminal HIS tag (ECD-huSortilin-HIS) (human, UniProt Q99523 78-755)", "T1 construct": "Bought (R&D Systems); also called human sortilin-ECD; not shown: C-terminal HIS tag", "T1 sequence": "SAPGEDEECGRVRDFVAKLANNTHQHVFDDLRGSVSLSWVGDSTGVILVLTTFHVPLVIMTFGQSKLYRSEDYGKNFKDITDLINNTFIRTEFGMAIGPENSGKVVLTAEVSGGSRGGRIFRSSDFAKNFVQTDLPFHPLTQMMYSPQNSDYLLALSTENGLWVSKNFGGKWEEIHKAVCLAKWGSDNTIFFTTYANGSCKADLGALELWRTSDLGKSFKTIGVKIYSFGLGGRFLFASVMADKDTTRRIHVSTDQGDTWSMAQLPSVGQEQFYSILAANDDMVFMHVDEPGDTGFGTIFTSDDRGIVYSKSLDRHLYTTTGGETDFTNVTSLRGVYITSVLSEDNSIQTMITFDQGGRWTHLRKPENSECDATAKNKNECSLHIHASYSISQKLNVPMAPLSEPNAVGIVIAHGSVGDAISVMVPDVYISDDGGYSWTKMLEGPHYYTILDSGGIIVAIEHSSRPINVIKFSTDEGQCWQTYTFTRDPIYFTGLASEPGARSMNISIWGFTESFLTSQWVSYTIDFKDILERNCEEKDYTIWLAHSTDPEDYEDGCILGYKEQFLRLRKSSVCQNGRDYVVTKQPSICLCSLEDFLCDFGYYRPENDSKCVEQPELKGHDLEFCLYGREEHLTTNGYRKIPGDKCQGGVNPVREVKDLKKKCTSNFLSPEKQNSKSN", "test": "ELISA, ECD-huSortilin-HIS coated at 1 ug/mL, goat anti-human IgG-HRP, chemiluminescence", "procedure": "384-well ELISA plates were coated with 1 ug/mL recombinant ECD-huSortilin-HIS (20 uL/well) and incubated overnight at 4° C. all plates were blocked with 3% BSA in PBS for 1 hour at room temperature. Plates were then washed with Tris buffered saline containing 0.1% Tween20 (TBST) three times. 20 uL of humanized anti-Sortilin mAbs diluted 3-fold from 20 ug/mL to 0.3 ng/mL in 1% BSA in TBST were added to the wells, incubated for 1 hour at room temperature and then washed as above. Goat anti-human IgG specific-HRP (Jackson Immunoresearch) diluted 1:7000 in 1% BSA in TBST was then added at 20 uL per well to react with the bound antibodies and plates were incubated for 1 hour before being washed as above. Super signal Pico chemiluminescent ELISA substrate (ThermoFisher) was used for detection. 20 uL of substrate was added to each well and Relative Light Units (RLU) were measured immediately using the SpectraMax Paradigm (Molecular Devices). Data was analyzed and EC₅₀ was calculated using graphed Prism.", "units": {"EC50": "µg/mL"}, "values": [{"binder": "B1", "EC50": 0.07}, {"binder": "B2", "EC50": 0.14}, {"binder": "B3", "EC50": 0.1}, {"binder": "B4", "EC50": 0.06}, {"binder": "B5", "EC50": 0.07}]}, {"target": "T1, extracellular domain (ECD) of …", "test": "SPR (Biacore T200), mAb captured by anti-human antibody on CM5, Sortilin 0.1-300 nM as analyte, global 1:1 fit", "procedure": "Analysis was performed using a Biacore T200 to compare the binding affinity of chimeric and humanized antibodies to recombinant human Sortilin. Anti-Human antibody was immobilized on sensor chip CM5 (GE Healthcare Life Sciences) via amine coupling, and humanized antibodies (ligand) were captured to a level to ensure a maximum binding of analyte of 50 RU (approximately 100 RU of ligand binding). Various concentrations of Sortilin (ranging from 0.1 nM to 300 nM) were passed over the captured ligand at 50 μL/min in running buffer (HBS+0.05% P-20, 1 mg/mL BSA) for 300s association time and 1200s dissociation time. Regeneration of the chip surface was accomplished by 2 short injections of 3M MgCl. Data was blank subtracted to both a sensor not containing ligand and 0 nM analyte concentration. Analysis was performed using a global 1:1 fit with Biacore Insight Evaluation software (v2.0) with bulk refractive index set to zero RU.", "units": {"Kd": "nM", "koff": "s⁻¹", "kon": "M⁻¹ s⁻¹"}, "values": [{"binder": "B1", "Kd": 0.66}, {"binder": "B2", "Kd": 2.22, "koff": 0.00141, "kon": 637000}, {"binder": "B3", "Kd": 2.98, "koff": 0.00134, "kon": 450000}, {"binder": "B4", "Kd": 2.29, "koff": 0.00157, "kon": 684000}, {"binder": "B5", "Kd": 3.22, "koff": 0.0015, "kon": 466000}]}]}
